Results: article PMC4837377 (Scientific Reports, 2016)

B1: PA-PB1(1-686) heterodimer (construct 1) (complex)
chain 1: […]
chain 2: MDVNPTLLFLKVPAQNAISTTFPYTGDPPYSHGTGTGYTMDTVNRTHQYSEKGKWTTNTETGAAQLNPIDGPLPEDNEPSGYAQTDCVLEAMAFLEESHPGIFENSCLETMEVVQQTRVDRLTQGRQTYDWTLNRNQPAATALANTIEVFRSNGLIANESGRLIDFLKDVIESMDKEEMEITTHFQRKRRVRDNMTKKMVTQRTIGKKKQRVNKRSYLIRALTLNTMTKDAERGKLKRRAIATPGMQIRGFVYFVETLARSICEKLEQSGLPVGGNEKKAKLANVVRKMMTNSQDTELSFTITGDNTKWNENQNPRMFLAMITYITKNQPEWFRNILSIAPIMFSNKMARLGKGYMFESKRMKLRTQIPAEMLASIDLKYFNESTRKKIEKIRPLLIDGTASLSPGMMMGMFNMLSTVLGVSILNLGQKKYTKTTYWWDGLQSSDDFALIVNAPNHEGIQAGVDRFYRTCKLVGINMSKKKSYINRTGTFEFTSFFYRYGFVANFSMELPSFGVSGINESADMSIGVTVIKNNMINNDLGPATAQMALQLFIKDYRYTYRCHRGDTQIQTRRSFELKKLWEQTRSKAGLLVSDGGPNLYNIRNLHIPEVCLKWELMDEDYQGRLCNPLNPFVSHKEIESVNNAVVMPAHGPAKSMEYDAVATTHSWIPKRNRSILNTSQRGILEDE
B2: RanBP5 (residues 1-1115) co-expressed in the PA-PB1(1-686)-RanBP5 polyprotein (construct 21) (natural protein)
chain: MPEDQVGKLEATENTISAMAAAAAEQQQFYLLLGNLLSPDNVVRKQAEETYENIPGQSKITFLLQAIRNTTAAEEARQMAAVLLRRLLSSAFDEVYPALPSDVQTAIKSELLMIIQMETQSSMRKKVCDIAAELARNLIDEDGNNQWPEGLKFLFDSVSSQNVGLREAALHIFWNFPGIFGNQQQHYLDVIKRMLVQCMQDQEHPSIRTLSARATAAFILANEHNVALFKHFADLLPGFLQAVNDSCYQNDDSVLKSLVEIADTVPKYLRPHLEATLQLSLKLCGDTSLNNMQRQLALEVIVTLSETAAAMLRKHTNIVAQTIPQMLAMMVDLEEDEDWANADELEDDDFDSNAVAGESALDRMACGLGGKLVLPMIKEHIMQMLQNPDWKYRHAGLMALSAIGEGCHQQMEGILNEIVNFVLLFLQDPHPRVRYAACNAVGQMATDFAPGFQKKFHEKVIAALLQTMEDQGNQRVQAHAAAALINFTEDCPKSLLIPYLDNLVKHLHSIMVLKLQELIQKGTKLVLEQVVTSIASVADTAEEKFVPYYDLFMPSLKHIVENAVQKELRLLRGKTIECISLIGLAVGKEKFMQDASDVMQLLLKTQTDFNDMEDDDPQISYMISAWARMCKILGKEFQQYLPVVMGPLMKTASIKPEVALLDTQDMENMSDDDGWEFVNLGDQQSFGIKTAGLEEKSTACQMLVCYAKELKEGFVEYTEQVVKLMVPLLKFYFHDGVRVAAAESMPLLLECARVRGPEYLTQMWHFMCDALIKAIGTEPDSDVLSEIMHSFAKCIEVMGDGCLNNEHFEELGGILKAKLEEHFKNQELRQVKRQDEDYDEQVEESLQDEDDNDVYILTKVSDILHSIFSSYKEKVLPWFEQLLPLIVNLICPHRPWPDRQWGLCIFDDVIEHCSPASFKYAEYFLRPMLQYVCDNSPEVRQAAAYGLGVMAQYGGDNYRPFCTEALPLLVRVIQSADSKTKENVNATENCISAVGKIMKFKPDCVNVEEVLPHWLSWLPLHEDKEEAVQTFNYLCDLIESNHPIVLGPNNTNLPKIFSIIAEGEMHEAIKHEDPCAKRLANVVRQVQTSGGLWTECIAQLSPEQQAAIQELLNSA

Columns and labels:
[1] = target: B2; assay: co-purification (nickel resin, heparin, SEC); conditions: partners not purified
[2] = target: B1; assay: SEC-SAXS; conditions: both partners purified

Binder | binding result [1] | stoichiometry N [2]
B1 | binds | 
B2 |  | 1
